In patent US20030170653A1, “Biological method for the production of tuliposide A and its intermediates” (priority 2001, published 2003):

How the values were obtained:
[1] = Decarboxylase enzyme activity of E. coli extracts, substrate D,L-γ-methyleneglutamate (HPLC of FMOC derivatives); assay type: biochemical; settings: for enzyme activity against D,L-γ-methyleneglutamate compared with L-glutamate: proteins from expressing cells; for Rate for each substrate: γ-methyleneglutamate (2): crude protein, 20 mM D,L-γ-methyleneglutamate, pH 5.8, room temperature
Description: (§1) Chemically competent BL21 (DE3) cells (Novagen) were transformed with pNW2, pNW12 and pNW9, as well as with plasmids pET28a and pET29a. An isolated colony of freshly transformed cells was inoculated into 2 mL of LB containing kanamycin (50 μg/mL) and the culture grown overnight at 37° C. Cultures were transferred to 250 mL of LB containing kanamycin (50 μg/mL) and grown at 22° C. to OD 0.6-1.0, at which point they were induced with IPTG (0.1 mM). Induced cells were grown for an additional 14 h and harvested by centrifugation at 10,000× g.
(§2) Cells were resuspended in 5 mL of extraction buffer (50 mM Tris-HCl, pH 7.5, 0.2 mM EDTA, 10% glycerol, 1 mM DTT and 1 mM fresh AEBSF) and disrupted by two passes through a French press cell (12,000 psi). Soluble protein extracts were obtained from the supernatant fraction after centrifugation at 10,000× g for 10 min. Protein concentrations were determined using a Bradford reagent (Bio-Rad) (Bradford, Anal. Biochem. 72:248-254 (1976)).
(§3) Enzyme activity was determined using a method similar to that of Snedden et al. (J. Biol. Chem. 271:4148-4153 (1996)) and Turano et al. (Plant Physiol. 117:1141-1421 (1998)). Assays were carried out in a volume of 200 μL with 200 mM pyridine-HCl, pH 5.8, 10 mM NaCl, 0.1 mM PLP, 20 mM L-glutamate or D,L-γ-methyleneglutamate, and 20 to 50 uL of enzyme extract. The reactions were incubated at room temperature and 50 μL aliquots were removed at various times. Ethanol (100 μL) was added to terminate the reaction and precipitate the proteins. Samples were centrifuged at 10,000× g for 10 min. The supernatants were transferred to a fresh tube and dried under vacuum after which they were dissolved in 500 μL of borate buffer (400 mM, pH 10). For HPLC analysis, 20 μL of the sample was derivatized by mixing with 20 μL of FMOC ((9-fluorenylmethoxycarbonyl)). FMOC-derivatized samples were separated on a Novapak C18 column (3.9×150 mm, Waters) using an Alliance 2690 HPLC with a 9600 PDA detector (Waters). Samples were injected (16 μL) and separated with a gradient of Buffer A (40 mM NaPO4, pH 7.8) to Buffer B (methanol:acetonitrile:water/45:45:10). Assay products were FMOC-derivatized and quantified by comparison with standards. In each experiment, enzyme activity determinations were performed in triplicate. Proteins from Escherichia coli expressing empty vectors pET28a and pET29a were used as controls.

[2] = Decarboxylase enzyme activity of E. coli extracts, substrate L-glutamate (HPLC of FMOC derivatives); assay type: biochemical; settings: for Rate for each substrate: Glutamate (1): crude protein, 20 mM L-glutamate, pH 5.8, room temperature; for Ratio (½): rate with glutamate (1) over rate with γ-methyleneglutamate (2)
Description: as §1, §2, §3

B1: gad3chim: chimeric glutamate decarboxylase homolog from Alstroemeria (SEQ ID NO: 6), N-terminal His-tag fusion from vector pNW9 (protein)
chain: MALSSVVSDSNNQVQCTYASRYVRDEAPGFRMPEKSIPKEAAFTMINDELMLDGNPRLNLASFVTTWMEPECDRLMMSTINKNYALMDDYPVTIDIQNRCVNMIANLFNAPIGEGETTVGCATVGSSEAMMLAGLAFKRNWQNKRKAEGKPYDKPNMVTGSNVQVCWVKFAKYFEVEMKKVNLREGYYVMDPEKAVEMVDENTICVAAILGSTLTGEFEDVKLLNDLLVEKNKKTGWDTPIHVDAAIGGFIAPFIYPELEWDFRLPLVKSINVSGHKYGLVYPGVGWVVWRNKNDLPEELIFHINYLGIDQPTFTLNFSKGSNQIIGQYYQLIRLGFEGYKNIMENCTENARILREHLEEMGVFEIISKDIGAPLVTIALKDSSKHSVFKIADTIRRFGWTIPAYTMPKDVEHIAVLRVVIREDFSRSLAERLANDMKKVLVELDIHPSRTTTIAHVKAVENGNGNYVIKKSIVENGNGEHVIKKSIGENGNGKHAIKNEHVIKKSIGENFNGKHAIKNCRDAVIANAA
modifications: N-terminal His-tag; Alstroemeria
enzyme activity against D,L-γ-methyleneglutamate compared with L-glutamate [1]: much higher

B2: Gad2/pNW2: glutamate decarboxylase homolog from Alstroemeria (SEQ ID NO: 2), expressed in E. coli from vector pNW2, crude protein (protein)
chain: MVLSSAVSDNTGPVHCTFASRYVRDAPARFRMPENSIPKDTAYQIVNDELMLDGNPRLNLASFVTTWMEPECDRLMIAAANKNYVDMDEYPVTTELQNRCVNIIAHLFNAPIGDEETAVGVGTVGSSEAIMLAGLAFKRKWQNKKKAEGKPYDKPNIVTGANVQVCWEKFARYFEVELKEVKLREGYYIMDPEKAVEMVDENTICVAAILGSTLTGEFEDVKLLNKLLEEKNKETGWDTPIHVDAASGGFIAPFLYPELEWDFRLPLVKSINVSGHKYGLVYAGVGWVVWRNKEDLPEELIFHINYLGADQPTFTLNFSKGSSQIIAQYYQFIRLGFQGYKNIMENCMENTRILREGLQETGRFEIVSKDIGVPLVAFALKDSSQYTVFEIADAMRRFGWIIPAYTMPKDAEHIAVLRVVIREDFSRSLAERLVNDMKKVLAELDVLPSRITTIAHVTAVENDNGEAVIKKSFLEIEKKVITHWKDVVMNGKKTNKVC
modifications: Alstroemeria
Rate for each substrate: Glutamate (1) [2]: 12.0 μmol/min^−1/mg^−1 | enzyme activity with L-glutamate compared with D,L-γ-methyleneglutamate as substrate ([2]; proteins from expressing cells): sixteen times higher | Ratio (½) [2]: 16 | Rate for each substrate: γ-methyleneglutamate (2) [1]: 0.8 μmol/min^−1/mg^−1

B3: Gad3del/pNW12: glutamate decarboxylase homolog from Alstroemeria with in-frame deletion (SEQ ID NO: 4), N-terminal His-tag fusion from vector pNW12 (protein)
chain: MALSSVVSDSNNQVQCTYASRYVRDEAPGFRMPEKSIPKEAAFTMINDELMLDGNPRLNLASFVTTWMEPECDRLMMSTINKNYALMDDYPVTIDIQNRCVNMIANLFNAPIGEGETTVGCATVGSSEAMMLAGLAFKRNWQNKRKAEGKPYDKPNMVTGSNVQVCWVKFAKYFEVEMKKVNLREGYYVMDPEKAVEMVDENTICVAAILGSTLTGEFEDVKLLNDLLVEKNKKTGWDTPIHVDAAIGGFIAPFIYPELEWDFRLPLVKSINVSGHKYGLVYPGVGWVVWRNKNDLPEELIFHINYLGIDQPTFTLNFSKGSNQIIGQYYQLIRLGFEGYKNIMENCTENARILREHLEEMGVFEIISKDIGAPLVTIALKDSSKHSVFKIADTIRRFGWTIPAYTMPKDVEHIAVLRVVIREDFSRSLAERLANDMKKVLVELDIHPSRTTTIAHVKAVENGNGNYVIKKSIVENGNGEHVIKKSIGENGNGKHAIKNCRDAVIANAA
modifications: N-terminal His-tag; Alstroemeria
Rate for each substrate: Glutamate (1) [2]: 7.0 μmol/min^−1/mg^−1 | Ratio (½) [2]: 0.56 | Rate for each substrate: γ-methyleneglutamate (2) [1]: 12.4 μmol/min^−1/mg^−1 | enzyme activity against D,L-γ-methyleneglutamate compared with L-glutamate [1]: much higher
